167 variants from the RNAGym collection of RNA variant scans (doi:10.1073/pnas.2313332121) can be followed below.

First the molecules themselves.
B1: TPR t1 (parent)
chain: GACCAAUCUGCCCUCAGAGCUCGAGAACAUCUUCGGAUGCAGAGGAGGCAGGCUUCGGUGGCGCGAUAGCGCCAACGUCCUCAACCUCCAAUGCAUCCCACCACAUGAUGAUGCCUGAAGAGCCUUGGUUUUUUG

The variants in the series derive from B1. Nature of the series: polymerase ribozyme fitness, log enrichment relative to wild type (log ratio); higher = more active; in vitro selection for triplet polymerase activity. The method in brief:
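Frozen incubation at −7 °C formed the core of a single, triplicate in vitro selection round applied to PCR-built, transcribed mutant libraries of each subunit of a heterodimeric triplet polymerase ribozyme. Extended constructs were gel-excised, captured with streptavidin beads and amplified by RT-PCR, and input and output libraries were Illumina-sequenced with a filter of ≥10 input reads and ≥1 read per output. Fitness is the logarithm of genotype enrichment relative to wild-type enrichment, with inverse-variance-weighted replicate averaging, and the logarithm is base 2.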
Consider C40U G63C C98U A100U C101U, for which the “polymerase ribozyme fitness (log ratio)” value is -3.3.
To A41G A46U C123U belongs -2.51; to G42A G69U, -0.125; to G42C G52A G60U C101U C104A, -5.59.
To A41G C102U belongs -3.18; to A41G G51U C114G, -5.83.
To A41G A68G C82U belongs -5.28; to G42U C73A G127A, -2.84; to A43C G61U C123G, -1.3.
With A41G G63U, the “polymerase ribozyme fitness (log ratio)” value was -2.37.
Under C40U G61U stands -0.267; under A41G A50C G77A U116C, -3.42.
Under G42C G57A A105U stands -5.05; under A41U C99U C124U, -5.19; under A41U C53A C115A, -1.03.
To A41G G51A A90C belongs -5.76.
A41U G57U C86G C123U: the “polymerase ribozyme fitness (log ratio)” value was -4.13.
Under G42C G120A stands -1.29; under A41C G51A C114G, -6.23.
To G42U C64U belongs -1.54.
Under G42A G45U A68G C82U C89U A90U A118G stands -4.62; under A41C C88U U92C C104U A111C U125G U132C, -4.35.
As for C40U U92G C98U G113U G117U, the “polymerase ribozyme fitness (log ratio)” value was -6.95.
As to C40U G51A G60U C82G U96A U116G, the “polymerase ribozyme fitness (log ratio)” value is -6.02.
For G42C C70A, the “polymerase ribozyme fitness (log ratio)” value is -4.99.
To G42U C53U G60U G110U belongs -3.64.
To G42U C124U belongs -0.586; to C40U G110C, -4.3; to C40U G110A, -1.7.
Consider A43G C88G G113U A121G, for which the “polymerase ribozyme fitness (log ratio)” value was -3.25.
To G42C G57A belongs -3.88; to G42A C72G C88G, -3.92.
A41U A68G: the “polymerase ribozyme fitness (log ratio)” value is -5.2.
In the case of G42A A83U, the “polymerase ribozyme fitness (log ratio)” value was -2.65.
For G42A G63C U133G, the “polymerase ribozyme fitness (log ratio)” value was -3.43.
Under A41U A84U C88A stands -3.83; under A43G A50C C85U C89A, -3.67; under A41U G52A C62U G117U, -5.18.
Under G42U C53A A84C C86U A90U U131G U132C stands -1.34; under A41C G42U G71A U81C, -4.72; under G42U C124G G135C, 0.643.
Under A43C C56U U78C U125A stands -3.15; under A41U C64U C73U U106C, -1.79.
As for A41U G45C C53G C79U C97U, the “polymerase ribozyme fitness (log ratio)” value is -6.18.
Under G42U C53U C62U G110A stands -3.9; under G42U C88G C101A G120C, -3.53; under A43C C70U, -3.69.
Turning to A41U C89U C123A, the “polymerase ribozyme fitness (log ratio)” value is -1.59.
Take A41C G44C: the “polymerase ribozyme fitness (log ratio)” value was -1.48.
To C40U U78G C85G belongs -2.08; to G42U G48A G110C A111G, -6.19; to G42C U112A, -0.562.
To A43C U129G belongs -3.27; to A41C G44U U87C, -1.33.
To C40U U55G U78G U92A G110C G122A C124G belongs -7.14; to G42A A46U G48A G63A A118U, -3.82; to A43G C70U G120U G128U, -3.88.
In the case of G42U G45C C70U A83G, the “polymerase ribozyme fitness (log ratio)” value was -5.2.
To A41G G117U belongs -2.99; to A41C C70A, -3; to G42U G120U, -1.31.
Turning to G42A U55C, the “polymerase ribozyme fitness (log ratio)” value was -2.24.
Take A41G A91U: the “polymerase ribozyme fitness (log ratio)” value is -1.63.
To A41U C98U belongs -2.83; to A41G A68G, -3.96.
Regarding C40U G52U C88A, the “polymerase ribozyme fitness (log ratio)” value was -1.07.
Under G42C C56U G69U G93A G120C U131G stands -3.67.
As for G42U U106A G120C, the “polymerase ribozyme fitness (log ratio)” value was -2.14.
Take G42A C70A A84U U92C U96A C102G C124G: the “polymerase ribozyme fitness (log ratio)” value was -6.77.
Under G42A G63A A83U A121U stands -3.11.
Under G42A G61U stands -2.48.
Under C40U G113A C114G stands -2.13; under G42A G45C G69U C123U, -0.482.
With G42U C80U, the “polymerase ribozyme fitness (log ratio)” value is -2.21.
To G42A U129A belongs -3.37; to G42U C101U, -1.21.
To G42A G44U C53A U55A G127C belongs -3.14.
To G42A A50U belongs -4.57; to A41G C56A A75U G117U, -3.99.
As to A43C C53U, the “polymerase ribozyme fitness (log ratio)” value was -2.24.
With A41U G63A C86G C101U, the “polymerase ribozyme fitness (log ratio)” value is -4.01.
Take C40U G71U C115U U125G U133C: the “polymerase ribozyme fitness (log ratio)” value was -0.893.
A41U G45A U55C G71A: the “polymerase ribozyme fitness (log ratio)” value is -3.
To A41U C56A C72U U92G belongs -1.3; to G42A A43U G52A C73U U133C, -1.65.
To A41C C62U belongs -2.99; to G42A C82U, -1.95.
To A41C G51U A121G belongs -3.12; to A41U G57U, -1.23; to G42A C53U G63U, -3.99.
For A41U C53G C62G G113C, the “polymerase ribozyme fitness (log ratio)” value was -6.56.
To G42C G77U belongs -1.59; to A41U C123G, 0.0535.
Turning to G42C A111G A121C, the “polymerase ribozyme fitness (log ratio)” value was -1.57.
To G42U C62U belongs -1.69; to C40U C88A, -0.911.
Under G42A G69U C76A A121U stands -3.23; under G42A G48C C62A A119U C124A, -3.3; under G42U A43C G60A C89A, -2.03.
For the variant A41C C114G, the “polymerase ribozyme fitness (log ratio)” value was -1.19.
To G42U A95G belongs -0.388; to C40U G51C G57U C89U G120U, -3.44; to G42A U96A, -2.83.
Under A43G A100U stands -2.72; under C40U C104A A118U, -1.26; under G42A C62U, -2.15.
Under A43G C56U U109A G117U stands -5.89; under G42A A50U C73A C123U, -2.52.
On to A41U C56U U78G, for which the “polymerase ribozyme fitness (log ratio)” value was -1.47.
To G42A A95C belongs -1.94; to A41C C101A G120C, -1.45; to A41U U55G A91U C101G, -4.09.
G42U G57U: the “polymerase ribozyme fitness (log ratio)” value is -1.5.
To A43G C72U U112C G122U belongs -0.894; to C40U G58C, -0.23; to A41U C115U G127A, -3.9.
Under G42A G61C U133A stands -5.31; under G42U A66U, -2.91.
Under A41G C64U A91U U106A G110A stands -5.83; under G42C G61A C82U U116A, -4.34.
For the variant C40U C97U U106A C115A, the “polymerase ribozyme fitness (log ratio)” value was -1.86.
As for G42A C73U, the “polymerase ribozyme fitness (log ratio)” value was -1.61.
Under G42U C62U C64U A84G stands -4.19; under G42A C64U U109A, -6.32; under A41C G42C G63U G127C, -4.81.
To G42U C56G C73U G110A belongs -4.56; to A41C A46G, -1.13; to G42A G63U, -3.48.
Consider A43G C80A C115G, for which the “polymerase ribozyme fitness (log ratio)” value was -7.29.
Under G42U G45A G110C stands -5.34.
To G42A U78A U87C C114U belongs -2.27.
Under G42A A66U C79U stands -3.79.
With C40U G42A C101G C114A, the “polymerase ribozyme fitness (log ratio)” value was -5.28.
On to C40U G47A, for which the “polymerase ribozyme fitness (log ratio)” value is -2.33.
For A41U G71C G117U, the “polymerase ribozyme fitness (log ratio)” value was -5.03.
As for G42U C73A C99U, the “polymerase ribozyme fitness (log ratio)” value was -6.29.
Consider G42C G61U, for which the “polymerase ribozyme fitness (log ratio)” value is -1.04.
Under C40U G44U C49U C53A A84C C86G G113C U125C stands -3.99; under G42A C85U, -2.41; under G42C A46C C62U A95G U96G, -4.
To C40U U87A belongs -0.311; to A43C C85A C101A, -5.53; to A41G C56A, -1.81.
To A41G C79G C114A belongs -5.3; to G42A C72A C114U, -2.37; to G42U G63U, -3.48.
Take A41G C73G U87C C104U C115A C123G G135A: the “polymerase ribozyme fitness (log ratio)” value turned out to be 0.00105.
To C40U G51U C53U G61U G113U belongs -6.53.
To A41U G113A belongs -1.81.
Regarding A41U G48U C76A, the “polymerase ribozyme fitness (log ratio)” value was -1.72.
Under A41C G60C C101G U126G U132C stands -4.76.
Consider G42C G44U C64G G113U, for which the “polymerase ribozyme fitness (log ratio)” value was -5.99.
Under A41G G61C A95C C101U U106A stands -3.41; under A41C G63U G77C A100U, -4.24.
To A43C U59C C80A belongs -6.52; to A41U G61A C102A U133G, -3.96; to G42A G71U A119U, -2.99.
To A41C A46C C72G C97U U133A belongs -3.71; to C40U C101U, 0.317.
As to G42U U55G G117A, the “polymerase ribozyme fitness (log ratio)” value is -3.02.
Under G42C G44C C56U C104U stands -0.811; under A41U G52C C124U U131C G135U, -1.81; under A41C C89G, -3.37.
To A41C C89U belongs -0.432; to A43C A46U, -2.91; to C40U G60C G135U, -1.79.
To A43C G61A C85G G113A C115U belongs -5.36.
